The DeepSol protein solubility set

assay: soluble on expression in E. coli; label from the status in PepcDB or PDB records

Sequence	soluble on expression in E. coli
MRIILLGAPGAGKGTQAQFIMEKYGIPQISTGDMLRAAVKAGSELGLKAKEIMDAGKLVTDELVIALVKERITQEDCRDGFLLDGFPRTIPQADAMKEAGIKVDYVLEFDVPDELIVERIVGRRVHAASGRVYHVKFNPPKVEDKDDVTGEELTIRKDDQEATVRKRLIEYHQQTAPLVSYYHKEADAGNTQYFKLDGTRNVAEVSAELATILG	not soluble
MGSDKIHHHHHHMLTYTVYSEAGGVGKTTMAANLAVADARAGHDVLAIDMDPQEGSLSFLFDVADHRTDSEADSLVRHLVERPRGPFSDLIETSEGVDVLPAHNSLEVLSKHLRRREEEAADFGENWNPNVQLLRVLKDAGVPSEYDTVIIDPPATADVKLYNALHATRNLVIPFEPSGKGQQSVAGLADLVTGLEDTLDINVGVLAAVPNRFKGTNDQEEMLKRLQAESYDIPVVFRERTSLLEGCWRKQCSAFKYIEEHRSRERDYEIETLEQFEELAAHLRQTREQEATA	not soluble
MSEQLTDQVLVERVQKGDQKAFNLLVVRYQHKVASLVSRYVPSGDVPDVVQEAFIKAYRALDSFRGDSAFYTWLYRIAVNTAKNYLVAQGRRPPSSDVDAIEAENFESGGALKEISNPENLMLSEELRQIVFRTIESLPEDLRMAITLRELDGLSYEEIAAIMDCPVGTVRSRIFRAREAIDNKVQPLIRR	not soluble
NQKDFDRTMVIDERTELVARTITDYLKRTNPMDKTIVFCNDIDHAERMRRALVNLNPEQVKKNDKYVMKITGDDEIGKAQLDNFINPKKPYPVIATTSELMTTGVDAKTCKLVVLDQNIQSMTKFKQIIGRGTRIDERYGKLWFTILDFKKATELFADERFDGIPEKVMDTTPEDIAD	not soluble
MGSDKIHHHHHHMTRADYLNQLEQALFQLHPSARQEALDYFNEYFDEKDNDEEAIIELGTPDEAAKEIIANLPEDALIPEKDQASPHSSKPFDFNFDFDFQFDWENFFNNFKHSAYQARERIKLTSKIEELPEFSNLQISLEDQALSVQSYEGEAVLLHNPVSEDGSYQAFDYQLVQDSLYISSKPTPNHLYFSNNQISSAILKIPKKLLPLTNLNLKTADSSLTIVDVQVCEQMVVNAKDSSISMTKVSCPSSALQLEDSTLTISDGQMSELKLEASDAVITLSSMSLSDARITLEDCVWKLKDFVLEKSLNCQAEDSVLTYKPSTDISLDIWEEDSSLKLPKDKAFTMMKEGDITHLSYKQENSPAQLVIHCQDCQLSVG	not soluble
MLAVGIVGLPNVGKSTLFNALTRANALAANYPFATIDKNVGVVPLEDERLYALQRTFAKGERVPPVVPTHVEFVDIAGLVKGAHKGEGLGNQFLAHIREVAAIAHVLRCFPDPDVVHVMGRVDPLEDAEVVETELLLADLATLERRLERLRKEARADRERLPLLEAAEGLYVHLQEGKPARTFPPSEAVARFLKETPLLTAKPVIYVANVAEEDLPDGRGNPQVEAVRRKALEEGAEVVVVSARLEAELAELSGEEARELLAAYGLQESGLQRLARAGYRALDLLTFFTAGEKEVRAWTVRRGTKAPRAAGEIHSDMERGFIRAEVIPWDKLVEAGGWARAKERGWVRLEGKDYEVQDGDVIYVLFNA	soluble
MKFTSATGSGSGQGSSSGTNTSAGNPDGLQADKVDQNGQVKTSVQEATSGDNLTNYTNLPPANLTPTADPNALSFTNKNNAQRAQLFLRGLLGSIPVLVNKSGQDDLEHHHHHH	not soluble
MAHHHHHHSLAEQIDLKTFKTDVADYEAARPEYPIGITDWITDEFLIDETSIILELGAGTGKFTPRIIASHPKEIIAVDVYPEMLDVLRKKFPNVDCRAGSAMAIPLEDESVDLVLCAQCFHWFANEEAMKEIYRVLKPNGKLGLVWNTRDDTVPWIEKVSKILGRYRKDAPSFVSWKWAELFPGHGFGKLRYCAFPFSRCLTVEELHTLMNSFSFIYKLPEEEKEKVHAELDEIAKTIPRVQNTDQIKLCYQTMAFSSEKEPAKEG	soluble
MAHHHHHHMNEPDAALEGVVDLTSNNFDSSVGKDVAALVEFYAPWCGHCKNLVPEFAKLGRAAAGAKDKVLIAKVDATAQKDLATRFEVNGYPTILFFPAGSQKPEKYSEGREAKAFVSYLNNQIKGLNLFLPREHKYVMALDQSNFDKVALDEGKDAFVLFYAPWCGHCKRLHPSFESLAKVYQNEKDLIIANVDADDKSNSEVTKRYKVEGYPTLVFFPKGNKGNPVNYEEGRTLDDMIKFVNERTGKKRTSSGDFDKTVGVDETVTNLMKEMAQSSKNKEERERLLAQIQQAVSPKALGEGAMHYIRIATNVLENGHEYISKEHERVGRLLKGSLTGPKRDSLTIRFNILSAIKGE	soluble
MGSDKIHHHHHHMHCGIDYGTSNSSLGIVKDGKVVQAELERNSVYLPSAIYRAFPEHELNDDIASRSIRQQLGSAQGLLYGSEAIEAYVRHPGDGLFMKSPKVFLGSDLSKDQMDFFQIVIAKMMTHILERAREFYGQELRQAVIGRPIRYHGIRGEEGDKQALAIMEHAAAGAGLEEVVFMYEPLAAALDYEQCLDRDEVLLVVDVGGGTTDCSVVKVGPSYRDKRERSDDLLAYSGNRIGGVDLDINLGWHTIMPLFGRGTDELHNKAFDAITVNSIPSQQAFYSRFEMPVHAQADTVRERLYRVWLDKLSSHLVRSAELAKIELSRRTSHVLELGYVEDGLEVHVSREDFRQAIARSAEKIRQVIDDARQASASRPDKIYLTGGSAVSPVIQQVIREVVGDAVPFVSGNMHGSVACGLSVFANRHFA	not soluble
MSYYLVQSTDEDILKHAECGGAVTAFFKYLLDKKLVDGVLALKKGEDVYDGLPYLVNDSKELVETCGSLHCAPTMFGNMISKHLKDMNLAVSVKPCDAMAIVELEKRHQIDKDKLYTIGLNCGGTVPPQTAKKMIELFYDVDPEDVIKEEIDKGKFIIELKDGSEKSVKIDELEEEGYGRRTNCQRCELKVPRNSDLACGNWGTEKGWTFVEVGSEKGEELLKNAQKEGYINVKAPSEKALEIRGKIEKSMINLGKKFQKEQLDEKYPEPEKWDEYWSRCIKCYGCRDVCPICFCKECALGEDYLDKGTIPPDPIMFQGIRLSHMSFSCINCGQCEDVCPVEIPLAKIYHRAQLKIRETTGFVPGIDDSMPFLYKLEHHHHHH	not soluble
MLEDLKRQVLEANLALPKHNLVTLTWGNVSAVDRERGVFVIKPSGVDYSIMTADDMVVVSIETGEVVEGAKKPSSDTPTHRLLYQAFPSIGGIVHTHSRHATIWAQAGQSIPATGTTHADYFYGTIPCTRKMTDAEINGEYEWETGNVIVETFEKQGIDAAQMPGVLVHSHGPFAWGKNAEDAVHNAIVLEEVAYMGIFCRQLAPQLPDMQQTLLNKHYLRKHGAKAYYGQ	soluble
MSLRVENLRSSTYRNGPTGLPNRARFSEDLDAVLLQRTADSAATAIAVDLCGSDYFRDMVKALGWDYADGYVALAYKRLISKLPAGTALYRLDTTTFAFMVTTADPLRLSALCSKISKGFVAPLEHQGIPHTAVASIGAVLLETSYGAADTLRSLTTSVDVAREHCLTWSLYERKHDVVQRNTFRLLAALPAALASSNQLRLHYQPRVDLHDHRCVAVEALLRWQHPMIGPVMPSDFIPMAEKTALINRITAWVIDQGIAQAARWQQQGLDFNLALNVSAADLDQPGFVGLLRRGLDRHKLDPRRLEIEFTESAMIRHPEHLSEQLAAVAALGVHIAIDDFGTGYSNFSYLKQLPASSLKIDQSFVRSLPDSRTDRTLVPAMIQLGHSLGQRVVAEGIESAQAYAQLRSWGCDEGQGYWIAKPMPAAALEAWLETPWYQRATDAEGHHHHHH	soluble
MGDVIKVLDAQVRESLSGLPELHINFRARIILNPEDPRVDSIPPLEEVRIATYTRKKIGDIEPGDRFIEIRGTIAKVYRVLTYDACPECKKKVDYDPGTGVWICPEHGEVEPIKMTILDFGLDDGTGYIRVTLFGDDAEELLGVSSEEIAEKIKELENSGLTTKEAARKLAEEEFYKIIGKEIVVRGNVIEDRFLGLILRASSWEEVDYRKEIENIKEELEKLGVMLEHHHHHH	soluble
MTLKELLVGFGTQVRSIWMIGLHAFAKRETRMYPEEPVYLPPRYRGRIVLTRDPDGEERCVACNLCAVACPVGCISLQKAETKDGRWYPEFFRINFSRCIFCGLCEEACPTTAIQLTPDFELGEYKRQDLVYEKEDLLISGPGKYPEYNFYRMAGMAIDGKDKGEAENEAKPIDVKSLLP	not soluble
MTFFFVFLALLSLLAFVIRKAHRNTYEAVLHKVQVGRSEDGDGAIRILQLSDLHLEKLSITPDDLYEKLKEEEIDLIALTGDFLDREESIAKLGPYLAALNALKPTYGMYAVFGNHDYVLQGEPFARLKATLEAHGCVVLQNETKTITVNGQTVNIIGIDDFYTGRSDIEKAYAGVKDGISLVLTHDPDIVPHMKDYHFDYLLSGHFHGGQIHWPKPYHLAKMSKTLTERNMIKGYHEWEGKPFYINEGLGQTGVNIRIGSKPEVTLHLLALPSRREAVKAV	not soluble
MSLSLSLEVLERLVAFETVSDRPNLDMIAYVEDFLRTRGFRVHRIADPEEAKAGLFAEIGPSVDGGLLLSAHSDVVPVEGQSWCVPPFKLTRQGDKLYGRGTTDMKGFLAEMLALADVVHRRDLHAPLKLLISYDEEIGCVGISRMKDRLRPLLGRPELAIVGEPTEMQVAISHKGKRSYRADFRGEAGHSALAPRFVNALHLAVDFVTKLRQMQDEFRQDGNFNGDYDVPYTTLHVGQLHGGEALNLVPDKATLLFEFRHLAEDDPEVIEARIQQAADAVKGNYADVAHISLDALAGYPGLSVAVSEPLVSRVRSWCDGNISHVAFGTEAGVLSELGIQTVVCGPGSMAEQGHKPDEFISEHQLAACSNMLRKGAEEMLYCAEGHHHHHH	soluble
MTAASLDPTAFSLDAASLAARLDAVFDQALRERRLVGAVAIVARHGEILYRRAQGLADREAGRPMREDTLFRLASVTKPIVALAVLRLVARGELALDAPVTRWLPEFRPRLADGSEPLVTIHHLLTHTSGLGYWLLEGAGSVYDRLGISDGIDLRDFDLDENLRRLASAPLSFAPGSGWQYSLALDVLGAVVERATGQPLAAAVDALVAQPLGMRDCGFVSAEPERFAVPYHDGQPEPVRMRDGIEVPLPEGHGAAVRFAPSRVFEPGAYPSGGAGMYGSADDVLRALEAIRANPGFLPETLADAARRDQAGVGAETRGPGWGFGYLSAVLDDPAAAGTPQHAGTLQWGGVYGHSWFVDRALGLSVLLLTNTAYEGMSGPLTIALRDAVYAR	soluble
MTEHTSSYYAASANKYAPFDTLNESITCDVCVVGGGYTGLSSALHLAEAGFDVVVLEASRIGFGASGRNGGQLVNSYSRDIDVIEKSYGMDTARMLGSMMFEGGEIIRERIKRYQIDCDYRPGGLFVAMNDKQLATLEEQKENWVRYGNKQLELLDVNAIRREVASDRYTGALLDHSGGHIHPLNLAIGEADAIRLNGGRVYELSAVTQIQHTTPAVVRTANGQVTAKYVIVAGNAYLGDKVEPELAKRSMPCGTQVITTERLSEDLARSLIPKNYCVEDCNYLLDYYRLTADNRLLYGGGVVYGARNPDDVERLVVPKLLKTFPQLKGVKIDYRWTGNFLLTLSHMPQFGRLDTNIYYMQGYSGHGVTCTHLAGRLIAELLRGDAERFDAFANLPHYPFPGGRTLRVPFTAMGAAYYSLRDRLGV	not soluble
RAKGRFFYDKTSSQQPAIIVLSGSDGRIEKAQNIAQLLASHGFTTLALAYFGLEGLASHLEKIPLEIIQEAIDYLKKSPYADSIRLGLYGRSKGAEFALLAASHYADFKCLVLNSPSYLCLEGLKQWRNSKTSSWTYQGQELPYHPFLWKDFFQRLILKKDLKNINHQAVIPVEKINGSLLLLVSKKDEVWDAYGSAITIVNRLQQKRFKYPYQVESYENCGHMMTVAYQPNHRYKKVALEKIMADTNDSWQKTL	not soluble
GMFADNTLTPKEAVRLCALGTIASQPMRYSELAGSVRHFTSRIMGPSLELMGISIELLRYEGLVEAVDDGQGMEDDAMLAISAAGRRELHSLLTARLRPGSDLSKLVVALKMRFLGLMEAEERAHQIDLLIEGVDSELARLADLRGSDGEGGSALAAWLDHDMALLESRLAWLEDFRARL	soluble
